For 26 molecules, binding result and IC50 results are on record in patent publication US20030119727A1 (Genentech, published 2003).

B1: Phage bearing the TF56 peptide sequence EAALCDDPRLDRWYCIFAGE (Pool E clone, polyvalent phage display) (peptide)
peptide: EAALCDDPRLDRWYCIFAGE
modifications: not fully specified (bridges); cysteine pairing not given here; also: displayed on phage, coat protein fusion partner not given here
notes: also called this clone
B2: TF130 (peptide)
chain: ALCDDPRVDKWYCQFVEG
B3: TF162 (peptide)
chain: ALCDDPRVSRWYCQFVEG
B4: TF179 (peptide)
chain: ALCDDPRVDRWYCAFVEG
B5: TF131 (peptide)
chain: ALCDDPRVDRFYCQFVEG
B6: TF191 (peptide)
chain: ALCDDPRVDRWYCQQVEG
B7: TF115 (peptide)
chain: ALCDDPRVDRWYCQAVEG
B8: TF98 (peptide)
chain: ALCDDPRVDQWYCQFVEG
B9: TF180 (peptide)
chain: ALCDDPRVDRWYC
B10: TF90 (peptide)
chain: ALCDDPRVDRWYCQF
B11: TF144 (peptide)
chain: ALCDDPRVDRWFCQFVEG
B12: TF189 (peptide)
chain: ALCDDPRVDRWYCQLVEG
B13: TF114 (peptide)
chain: ALCDDPRVDRAYCQFVEG
B14: TF146 (peptide)
chain: ALCDDPRVDRWYCQYVEG
B15: TF113 (peptide)
chain: ALCDDPRVDPWYCQFVEG
B16: TF132 (peptide)
chain: ALCDDPRVDRWYCYFVEG
B17: TF58 (peptide)
chain: EGTLCDDPRIDRWYCMFSGV
B18: TF63 (peptide)
chain: LCDDPRIDRWYCQF
B19: TF178 (peptide)
chain: ALCDDARVDRWYCQFVEG
B20: TF152 (peptide)
chain: ALCDDPRVDRHYCQFVEG
B21: TF318 (peptide)
chain: ATCDDPRVDRWYCQFVEG
B22: TF128 (peptide)
chain: ALCDDPRLDRWYCQFVEG
B23: TF89 (peptide)
chain: ALCDDPRVDRWYCQFV
B24: peptide TF76 (Ac-ALCDDPRVDRWYCQFVEG-NH2) (peptide)
peptide: Ac-ALCDDPRVDRWYCQFVEG-NH2
modifications: disulfide 3-13 (inferred)
B25: TF151-Fc fusion (Fc fusion)
chain: SQAQRRAVGALCDNPRIDRWYCQFVEGGGGSSG
modifications: cysteine pairing not given here; also: fused to human IgG1 Fc, dimer
notes: not shown: Fc portion of the human IgG1
B26: peptide TF151 (peptide)
peptide: ALCDNPRIDRWYCQFVEG
modifications: disulfide 3-13 (inferred)
notes: Chemically synthesized, with the disulfide oxidized

Positions of bridges follow the written chain, without caps; N, C: chain ends. No end group written: not given here. A value given as a limit tells only on which side of the number the result lay.

The target of the first assay is T1, BSA (UniProt P02769 25-607).
T1 construct: Control coating; also called bovine serum albumin
T1 sequence (P02769 25-607 limits assumed): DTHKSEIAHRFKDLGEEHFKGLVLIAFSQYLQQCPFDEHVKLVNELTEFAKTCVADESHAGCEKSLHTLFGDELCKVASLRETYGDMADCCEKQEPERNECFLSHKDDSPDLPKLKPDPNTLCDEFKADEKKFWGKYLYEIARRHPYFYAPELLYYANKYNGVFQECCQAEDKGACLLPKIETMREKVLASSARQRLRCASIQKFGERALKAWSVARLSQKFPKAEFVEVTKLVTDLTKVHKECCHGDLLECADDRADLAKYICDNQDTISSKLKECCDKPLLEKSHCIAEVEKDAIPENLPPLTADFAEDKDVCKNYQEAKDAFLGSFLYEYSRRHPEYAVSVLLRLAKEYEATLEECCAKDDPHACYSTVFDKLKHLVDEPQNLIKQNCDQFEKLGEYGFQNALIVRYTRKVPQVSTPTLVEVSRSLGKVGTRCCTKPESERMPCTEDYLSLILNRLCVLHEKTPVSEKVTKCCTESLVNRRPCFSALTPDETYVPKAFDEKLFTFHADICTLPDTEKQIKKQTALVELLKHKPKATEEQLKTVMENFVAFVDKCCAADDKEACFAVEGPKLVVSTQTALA
The assay is described as follows: phage binding to coated wells.
Conditions: not given
Consider B1, for which the binding result is on record as “no binding”.

A further assay has as its target T2, recombinant human Factor VIIa (human, UniProt P08709 61-212; P08709 213-466).
T2 construct: Immobilized directly on microtiter plates at 2 ug/ml; also called FVIIa
T2 sequence (looked up) 1: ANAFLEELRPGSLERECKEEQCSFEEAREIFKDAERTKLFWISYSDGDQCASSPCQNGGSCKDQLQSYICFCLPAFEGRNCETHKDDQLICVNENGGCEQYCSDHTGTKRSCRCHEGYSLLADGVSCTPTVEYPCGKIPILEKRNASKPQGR
T2 sequence (looked up) 2: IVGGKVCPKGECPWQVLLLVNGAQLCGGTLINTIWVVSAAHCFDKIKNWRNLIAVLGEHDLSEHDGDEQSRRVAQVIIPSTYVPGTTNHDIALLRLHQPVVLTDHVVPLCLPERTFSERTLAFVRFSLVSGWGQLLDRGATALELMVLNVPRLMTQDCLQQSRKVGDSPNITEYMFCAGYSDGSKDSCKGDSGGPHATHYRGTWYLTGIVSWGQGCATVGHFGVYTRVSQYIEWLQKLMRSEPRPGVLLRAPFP
Briefly: phage binding to coated wells.
Conditions: not given
On to B1, for which the binding result was “binds”.

The target in another assay is T3, recombinant human Factor VIIa (human), P08709.
T3 chain 1: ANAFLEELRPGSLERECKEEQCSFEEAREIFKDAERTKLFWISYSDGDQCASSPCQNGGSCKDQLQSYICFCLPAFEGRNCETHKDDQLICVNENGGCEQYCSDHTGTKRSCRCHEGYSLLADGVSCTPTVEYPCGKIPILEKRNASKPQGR
T3 chain 2: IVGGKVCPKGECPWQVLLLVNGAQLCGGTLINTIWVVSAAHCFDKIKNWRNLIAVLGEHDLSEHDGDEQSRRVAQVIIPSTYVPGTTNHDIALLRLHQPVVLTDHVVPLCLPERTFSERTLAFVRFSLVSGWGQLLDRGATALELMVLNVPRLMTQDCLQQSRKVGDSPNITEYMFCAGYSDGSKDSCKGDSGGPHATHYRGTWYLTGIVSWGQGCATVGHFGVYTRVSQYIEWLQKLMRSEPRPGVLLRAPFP
Briefly: competition ELISA. The following applies: modification not given.
Broadly, the IC50 is the concentration needed to halve the response being measured. On to B2, for which the IC50 worked out at 93 nM.

B3: the IC50 was determined as 359 nM.

Turning to B4, the half-maximal inhibitory concentration (IC50) amounted to 32 nM.

For the molecule B5, the IC50 is 4960 nM.

As to B6, the half-inhibitory concentration (IC50) was 20300 nM.

Take B7: the IC50 came out at 20000 nM.

As for B8, the IC50 was 2560 nM.

In the case of B9, the IC50 was found to be 100000 nM.

Consider B10, for which the IC50 was found to be 168 nM.

In the case of B11, the IC50 worked out at 485 nM.

With B12, the IC50 was 438 nM.

B13: the IC50 was above 50000 nM.

With B14, the IC50 was found to be 698 nM.

Turning to B15, the IC50 came out at 10500 nM.

As to B16, the IC50 was 85 nM.

As to B17, the IC50 was 2300 nM.

As to B18, the IC50 turned out to be 100000 nM.

For the molecule B19, the IC50 is 20 nM.

B20: the IC50 is above 100000 nM.

For B21, the IC50 was 75000 nM.

B22: the IC50 stood at 141 nM.

As for B23, the IC50 is 298 nM.

Another assay deals with T4, recombinant human Factor VIIa (human, UniProt P08709 61-212; P08709 213-466).
T4 chain 1: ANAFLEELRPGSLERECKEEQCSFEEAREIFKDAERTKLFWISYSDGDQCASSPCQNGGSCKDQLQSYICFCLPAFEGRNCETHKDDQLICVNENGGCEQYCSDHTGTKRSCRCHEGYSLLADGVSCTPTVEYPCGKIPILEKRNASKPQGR
T4 chain 2: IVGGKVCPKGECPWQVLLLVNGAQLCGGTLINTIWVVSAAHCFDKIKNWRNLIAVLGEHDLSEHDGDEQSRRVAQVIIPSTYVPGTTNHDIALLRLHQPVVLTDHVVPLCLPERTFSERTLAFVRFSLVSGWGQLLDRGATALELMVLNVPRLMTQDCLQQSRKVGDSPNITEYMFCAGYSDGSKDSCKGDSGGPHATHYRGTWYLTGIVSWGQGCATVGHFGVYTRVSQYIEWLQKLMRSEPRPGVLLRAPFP
Briefly: competition ELISA.
Conditions: not given
(In general: An ELISA detects its analyte on a solid surface through an enzyme-linked reagent.)
As to B24, the IC50 was found to be 21 nM.

The next assay deals with T2, recombinant human Factor VIIa. The assay is described as follows: FVIIa Binding ELISA, competition with 20 nM TF147b on immobilized FVIIa.
Conditions: not given
The method, then: FVIIa Binding ELISA—The ability of peptides to compete with biotinylated versions of TF76 (e.g. TF147b, or other peptides described herein that could be biotinylated as described) for binding to FVIIa was monitored using a FVIIa Binding ELISA or a TF-FVIIa Binding ELISA. Microtiter plates were coated overnight with 2 μg/ml recombinant human FVIIa or 2 μg/ml TF₁₋₂₄₃ (Paborsky, L. R. et al. (1991) J. Biol. Chem. 266: 21911) in 50 mM ammonium bicarbonate pH 9 at 4° C.; all other steps were performed at room temperature. Plates were then blocked with 1% BSA in Assay Buffer (50 mM HEPES, pH 7.2, 5 mM CaCl₂, 150 mM NaCl). […] The microtiter plate was washed 3 times with Assay Buffer plus 0.05% Tween 20 and the biotinylated-peptide bound was detected with a Streptavidin/HRP conjugate (Streptavidin-POD, Roche Molecular Biochemicals). The amount of HRP bound was measured using ABTS/H₂O₂ substrate (Kirkegaard and Perry Laboratories) and monitoring the absorbance at 405 nm. The absorbance at 405 nm was plotted versus the concentration of peptide originally added to the well. Sigmoidal curves were fit to a four parameter equation by nonlinear regression analysis (Marquardt, J. Soc. Indust. Appl. Math. 11:431-441 (1963); the concentration of each peptide required to give a half-maximal signal in the assay was calculated from the curves and is referred to as the IC₅₀ value. […]
As for B25, the IC50 was found to be 3 nM.

In the case of B26, the IC50 stood at 2 nM.
